Laboratory results taken from patent US20230135471A1, “UBIQUITIN VARIANTS WITH IMPROVED AFFINITY FOR 53BP1” (Integrated DNA Technologies, Inc., priority 2021, published 2023).

Molecular target: 53BP1 fragment (a.a. 1221-1718) fused to an adenylate cyclase fragment (two-hybrid) (UniProt Q12888)
Assay: cell-based or functional assay

Substance	Experiment 1 Average Enrichment	Experiment 1 Rep 1 Enrichment	Experiment 1 Rep 2 Enrichment	Experiment 2 Average Enrichment	Experiment 2 Rep 1 Enrichment	Experiment 2 Rep 2 Enrichment
i53 + A28D two-hybrid fusion (designed binder)	0.02 log2	-0.25 log2	0.29 log2	-0.41 log2	-0.24 log2	-0.58 log2
i53 + A28E two-hybrid fusion (designed binder)	0.31 log2	0.23 log2	0.4 log2	0.42 log2	0.53 log2	0.32 log2
i53 + A28I two-hybrid fusion (designed binder)	0.05 log2	-0.45 log2	0.56 log2	0.05 log2	0.37 log2	-0.28 log2
i53 + A28M two-hybrid fusion (designed binder)	0.03 log2	0.49 log2	-0.42 log2	-0.19 log2	-0.51 log2	0.12 log2
i53 + A28Q two-hybrid fusion (designed binder)	0.44 log2	0.47 log2	0.42 log2	0.14 log2	0.59 log2	-0.31 log2
i53 + A28W two-hybrid fusion (designed binder)	0.03 log2	0.48 log2	-0.41 log2	0.12 log2	0.41 log2	-0.17 log2
i53 + A46G two-hybrid fusion (designed binder)	0.6 log2	0.48 log2	0.72 log2	-0.17 log2	1.37 log2	-1.71 log2
i53 + D21E two-hybrid fusion (designed binder)	0.51 log2	0.2 log2	0.82 log2	-0.23 log2	-0.63 log2	0.16 log2
i53 + D32A two-hybrid fusion (designed binder)	0.11 log2	0.2 log2	0.02 log2	0.19 log2	0.19 log2	0.19 log2
i53 + D32E two-hybrid fusion (designed binder)	0.21 log2	0.41 log2	0 log2	-0.19 log2	-0.11 log2	-0.28 log2
i53 + D32R two-hybrid fusion (designed binder)	0.03 log2	0.61 log2	-0.54 log2	-0.46 log2	-0.53 log2	-0.39 log2
i53 + D39E two-hybrid fusion (designed binder)	0.36 log2	0.29 log2	0.44 log2	-0.18 log2	-0.14 log2	-0.23 log2
i53 + D39G two-hybrid fusion (designed binder)	-0.21 log2	-0.2 log2	-0.22 log2	0.06 log2	0.6 log2	-0.49 log2
i53 + D39L two-hybrid fusion (designed binder)	0.06 log2	0.49 log2	-0.38 log2	-2.16 log2	-2.9 log2	-1.42 log2
i53 + D39Q two-hybrid fusion (designed binder)	-2.78 log2	-3.1 log2	-2.46 log2	0.03 log2	-0.45 log2	0.51 log2
i53 + D39S two-hybrid fusion (designed binder)	-1.51 log2	-2.04 log2	-0.99 log2	0.04 log2	0.16 log2	-0.08 log2
i53 + D39W two-hybrid fusion (designed binder)	0.99 log2	0.9 log2	1.09 log2	0 log2	0.86 log2	-0.85 log2
i53 + D52E two-hybrid fusion (designed binder)	0.28 log2	0.43 log2	0.14 log2	0.04 log2	-0.3 log2	0.37 log2
i53 + D58S two-hybrid fusion (designed binder)	0.33 log2	0.29 log2	0.38 log2	0.21 log2	0.24 log2	0.17 log2
i53 + E16D two-hybrid fusion (designed binder)	-0.2 log2	-0.69 log2	0.3 log2	0.13 log2	0.42 log2	-0.15 log2
i53 + E16H two-hybrid fusion (designed binder)	0.03 log2	0 log2	0.05 log2	-0.13 log2	-0.21 log2	-0.05 log2
i53 + E16N two-hybrid fusion (designed binder)	0.11 log2	-0.32 log2	0.54 log2	0.26 log2	0.34 log2	0.18 log2
i53 + E16T two-hybrid fusion (designed binder)	0.88 log2	1.12 log2	0.64 log2	0.3 log2	0.27 log2	0.33 log2
i53 + E16Y two-hybrid fusion (designed binder)	0.35 log2	0.23 log2	0.47 log2	-0.22 log2	-0.32 log2	-0.11 log2
i53 + E18C two-hybrid fusion (designed binder)	0.23 log2	-0.06 log2	0.52 log2	-0.34 log2	-0.82 log2	0.14 log2
i53 + E18D two-hybrid fusion (designed binder)	-0.85 log2	-0.69 log2	-1.02 log2	0.14 log2	1.65 log2	-1.37 log2
